From IntAct's records for PubMed 9528767

B1: Small nuclear ribonucleoprotein E (Saccharomyces cerevisiae), Q12330 (parent)
chain: MSNKVKTKAMVPPINCIFNFLQQQTPVTIWLFEQIGIRIKGKIVGFDEFMNVVIDEAVEIPVNSADGKEDVEKGTPLGKILLKGDNITLITSAD
partner: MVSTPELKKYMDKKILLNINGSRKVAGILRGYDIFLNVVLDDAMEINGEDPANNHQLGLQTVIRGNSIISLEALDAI
B2: Small nuclear ribonucleoprotein E (Saccharomyces cerevisiae), Q12330 (parent)
chain: B1 chain

Variants of: B1
Conditions: with ruxg_yeast SMX2, P40204

Variant | effect of a mutation on the interaction
MSNKVKTKAMVPPINCIFNFLQQQTPVTIWSFEQIGIRIKGKIVGFDEFMNVVIDEAVEIPVNSADGKEDVEKGTPLGKILLKGDNITLITSAD [L31S] | with no effect
MSNKVETKAMVPPINCIFNFLQQQTPVTIWLFEQIGIRIKGKIVGFDEFMNVVIDEAVEIPVNSADGKEDVEKGTPLGKILLKGDNITLITSAD [K6E] | with no effect
MSNKVKTKAMVPPINCIFNFLQQQTPVTIWLFEQIGIRIKGKIVGFDEFMNVVIDEAVEIPVNSADGKEDVEKGTPLGKILLKGDAITLITSAD [N86A] | decreasing interaction strength
MSNKVKTKAMVPPINCIFNFLQQQTPVTIWLFEQIGIRIKGKIVGFDEFMNVVIDEAVEIPVNSADGKEDVEKGTPLGKILLKADNITLITSAD [G84A] | with no effect
MSNKVKTKAMVPPINCIFNFLQQQTPVTIWLFEQIGIRIKGKIVGFHEFMNVVIDEAVEIPVNSADGKEDVEKGTPLGKILLKGDNITLITSAD [D47H] | decreasing interaction strength
MSNKVKTKAMVPPINCIFNFLQQQTPVTIWLFEQIGIRIKGKIVGFAEFMNVVIDEAVEIPVNSADGKEDVEKGTPLGKILLKGDNITLITSAD [D47A] | decreasing interaction strength
MSTKVKTKAMVPPINCIFNFLQQQTPVTIWLFEQIGIRIKGKIVGFDEFMNVVIDEAVEIPVNSADGKEDVEKGTPLGKILLKGDNITLITSAD [N3T] | with no effect
MSNKVKTKAMVPPINCIFNFLQQQTPVTIWLFEQIGIRIKGKIVGFDEFMNVVNDEAVEIPVNSADGKEDVEKGTPLGKILLKGDNITLITSAD [I54N] | disrupting interaction strength
MSNKVKTKAMVPPINCIFNFLQQQTPVTKWLFEQIGIRIKGKIVGFDEFMNVVIDEAVEIPVNSADGKEDVEKGTPLGKILLKGDNITLITSAD [I29K] | disrupting interaction strength
MSNKVKTKAMVPPINCIFNFLQQQTPVTIWLFEQIGIRIKGKIVGFDEFMNVVIDEAVEIPVNSADGKEDVEKGTPLGKILLKGDNITLRTSAD [I90R] | disrupting interaction strength
MSNKVKTKAMVPPINCIFNFLQQQTPVTIWLFEQIGIRIKDKIVGFDEFMNVVIDEAVEIPVNSADGKEDVEKGTPLGKILLKGDNITLITSAD [G41D] | disrupting interaction strength
MSNKVKTKAMVPPINCIFNFLQQQTPVTIWLFEQIGIRIKGKIVGFDEFMNVVIDEAVEIPVNSADGKEDVEKGTPLGKIPLKGDNITLITSAD [L81P] | with no effect
MSNKVKTKAMVPPINCIFNFLQQQTPETIWLFEQIGIRIKGKIVGFDEFMNVVIDEAVEIPVNSADGKEDVEKGTPLGKILLKGDNITLITSAD [V27E] | disrupting interaction strength
MSNKVKTKAMVPPINCIFNFLQQQTPVTIWLFEQIGIRIKGKIVGFDEFMNVVIDEAVEIPVNSADGKEDVEKGTPLGKILLVGDNITLITSAD [K83V] | with no effect
MSNKVKTKAVVPPINCIFNFLQQQTPVTIWLFEQIGIRIKGKIVGFDEFMNVVIDEAVEIPVNSADGKEDVEKGTPLGKILLKGDNITLITSAD [M10V] | with no effect
MSNKVKTKAMVPPINCIFNFLQQQTPVTIWLFEQIGIRIKGKIVGFDEFMAVVIDEAVEIPVNSADGKEDVEKGTPLGKILLKGDNITLITSAD [N51A] | with no effect
MSNKVKTKAMVPPINCIFNFLQQQTPVTIWLFEQIGIRIKGKIVVFDEFMNVVIDEAVEIPVNSADGKEDVEKGTPLGKILLKGDNITLITSAD [G45V] | with no effect
MSNKVKTKAMVPPINCIFNFLQQQTPVTIWLFEQIGIRIKGKIVGFDEFMNVVIDEAVEIPVNSADGKEDVEKGTSLGKILLKGDNITLITSAD [P76S] | with no effect
MSNKVKTKAMVPPINCIFNFLQQQTPVTIWLFEQIGIRIKGKIVGFDEFANVVIDEAVEIPVNSADGKEDVEKGTPLGKILLKGDNITLITSAD [M50A] | decreasing interaction strength
MSNKVKTKAMVPPINCIFNFLQQQTPVTIWLFEQIGIRIKGKIVGFDEFMNVVIDEAVEIPVNSADGKEDVEKGTPLGKFLLKGDNITLITSAD [I80F] | with no effect
MSNKVKTKAMVPPINCIFNFLQQQTPVTIWLFEQIGIRIKGKIVGFDEFMNVVIDEAVAIPVDSADGKEDVEKGTPLGKILLKGDNITLITSAD [E59A;N63D] | with no effect

Variants of: B1
Conditions: with ruxg_yeast SMX2, P40204
Remark: another data set of the same source

Variant | effect of a mutation on the interaction
MSNKVKTKAMVPPINCIFNFLLQQTPVTIWLFEQIGIRIKGKIVGFDEFMNVVIDEAVEIPVNSADGKEDVEKGTPLGKILLKGDNITLITSAD [Q22L] | disrupting interaction strength

Variants of: B2
Conditions: with ruxf_yeast SMX3, P54999
Chain of ruxf_yeast SMX3, P54999 (P54999 whole entry): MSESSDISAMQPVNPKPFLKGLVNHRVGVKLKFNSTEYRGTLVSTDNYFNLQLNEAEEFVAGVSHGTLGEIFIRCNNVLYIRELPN

Variant | effect of a mutation on the interaction
MSNKVKTKAMVPPINCIFNFLQQQTPVTIWLFEQIGIRIKGKIVGFDEFMNVVIDEAVEIPVNSADGKEDVEKGTSLGKILLKGDNITLITSAD [P76S] | with no effect
MSNKVKTKAMVPPINCIFNFLQQQTPETIWLFEQIGIRIKGKIVGFDEFMNVVIDEAVEIPVNSADGKEDVEKGTPLGKILLKGDNITLITSAD [V27E] | disrupting interaction strength
MSNKVKTKAMVPPINCIFNFLQQQTPVTIWLFEQIGIRIKGKIVGFDEFMNVVIDEAVEIPVNSADGKEDVEKGTPLGKILLKGDNITLRTSAD [I90R] | decreasing interaction strength
MSNKVKTKAMVPPINCIFNFLLQQTPVTIWLFEQIGIRIKGKIVGFDEFMNVVIDEAVEIPVNSADGKEDVEKGTPLGKILLKGDNITLITSAD [Q22L] | disrupting interaction strength
MSNKVKTKAMVPPINCIFNFLQQQTPVTIWLFEQIGIRIKGKIVGFDEFMAVVIDEAVEIPVNSADGKEDVEKGTPLGKILLKGDNITLITSAD [N51A] | decreasing interaction strength
MSNKVKTKAMVPPINCIFNFLQQQTPVTIWLFEQIGIRIKGKIVGFDEFMNVVNDEAVEIPVNSADGKEDVEKGTPLGKILLKGDNITLITSAD [I54N] | disrupting interaction strength
MSNKVKTKAMVPPINCIFNFLQQQTPVTIWLFEQIGIRIKDKIVGFDEFMNVVIDEAVEIPVNSADGKEDVEKGTPLGKILLKGDNITLITSAD [G41D] | disrupting interaction strength
MSNKVKTKAMVPPINCIFNFLQQQTPVTIWLFEQIGIRIKGKIVGFHEFMNVVIDEAVEIPVNSADGKEDVEKGTPLGKILLKGDNITLITSAD [D47H] | disrupting interaction strength
MSNKVKTKAMVPPINCIFNFLQQQTPVTIWLFEQIGIRIKGKIVGFAEFMNVVIDEAVEIPVNSADGKEDVEKGTPLGKILLKGDNITLITSAD [D47A] | disrupting interaction strength
MSNKVKTKAMVPPINCIFNFLQQQTPVTIWLFEQIGIRIKGKIVGFDEFANVVIDEAVEIPVNSADGKEDVEKGTPLGKILLKGDNITLITSAD [M50A] | decreasing interaction strength
MSNKVKTKAMVPPINCIFNFLQQQTPVTKWLFEQIGIRIKGKIVGFDEFMNVVIDEAVEIPVNSADGKEDVEKGTPLGKILLKGDNITLITSAD [I29K] | disrupting interaction strength
MSNKVKTKAMVPPINCIFNFLQQQTPVTIWLFEQIGIRIKGKIVGFDEFMNVVIDEAVEIPVNSADGKEDVEKGTPLGKIPLKGDNITLITSAD [L81P] | disrupting interaction strength
MSNKVKTKAMVPPINCIFNFLQQQTPVTIWLFEQIGIRIKGKIVVFDEFMNVVIDEAVEIPVNSADGKEDVEKGTPLGKILLKGDNITLITSAD [G45V] | with no effect
MSNKVKTKAMVPPINCIFNFLQQQTPVTIWLFEQIGIRIKGKIVGFDEFMNVVIDEAVEIPVNSADGKEDVEKGTPLGKFLLKGDNITLITSAD [I80F] | decreasing interaction strength
MSNKVETKAMVPPINCIFNFLQQQTPVTIWLFEQIGIRIKGKIVGFDEFMNVVIDEAVEIPVNSADGKEDVEKGTPLGKILLKGDNITLITSAD [K6E] | with no effect
MSNKVKTKAMVPPINCIFNFLQQQTPVTIWSFEQIGIRIKGKIVGFDEFMNVVIDEAVEIPVNSADGKEDVEKGTPLGKILLKGDNITLITSAD [L31S] | with no effect
MSNKVKTKAVVPPINCIFNFLQQQTPVTIWLFEQIGIRIKGKIVGFDEFMNVVIDEAVEIPVNSADGKEDVEKGTPLGKILLKGDNITLITSAD [M10V] | with no effect
MSNKVKTKAMVPPINCIFNFLQQQTPVTIWLFEQIGIRIKGKIVGFDEFMNVVIDEAVAIPVDSADGKEDVEKGTPLGKILLKGDNITLITSAD [E59A;N63D] | with no effect
MSTKVKTKAMVPPINCIFNFLQQQTPVTIWLFEQIGIRIKGKIVGFDEFMNVVIDEAVEIPVNSADGKEDVEKGTPLGKILLKGDNITLITSAD [N3T] | increasing interaction strength
